Test results reported in publication PMC2959089, “The intriguing Cyclophilin A-HIV-1 Vpr interaction: prolyl cis/trans isomerisation catalysis and specific binding” (BMC Structural Biology, 2010).

Molecular target: recombinant human Cyclophilin A (CypA) (human) (UniProt P62937)
Assay: SPR

recombinant human Cyclophilin A (CypA) (human), sequence (P62937 whole entry): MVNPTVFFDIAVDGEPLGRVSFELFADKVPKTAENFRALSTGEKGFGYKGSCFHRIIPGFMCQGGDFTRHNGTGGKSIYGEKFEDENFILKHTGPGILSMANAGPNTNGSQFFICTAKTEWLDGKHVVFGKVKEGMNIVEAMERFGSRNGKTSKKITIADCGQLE

synthetic HIV-1 Vpr peptide sVpr^1-40 was tested, and the Kd was 0.284 mM, the ka1 (two-state model, association) was 752 M⁻¹ s⁻¹ and the ka2 (two-state model, forward rate) was 0.0073 s⁻¹. The kd1 (two-state model, dissociation) was 0.37 s⁻¹ and the kd2 (two-state model, backward rate) was 0.0099 s⁻¹.
“synthetic mutant HIV-1 Vpr peptide sVpr^1-40 P5,10,14N” showed a Kd of 6.15 mM, a ka1 (two-state model, association) of 46 M⁻¹ s⁻¹ and a ka2 (two-state model, forward rate) of 0.0047 s⁻¹. It also gave a kd1 (two-state model, dissociation) of 0.56 s⁻¹ and a kd2 (two-state model, backward rate) of 0.0048 s⁻¹.
